Assay [1] deals with AlexaFluor555-labeled TNFα (human, UniProt P01375 77-233, AlexaFluor 555 label (protein labeling kit; sites not stated)). The assay can be described thus: FRET or BRET. (Bioluminescence resonance energy transfer reports proximity on the nanometre scale.)
Another assay has as its target recombinant human TNF-α (human, UniProt P01375 77-233). The assay can be described thus: uptake of the cytokine into peptide-functionalised hydrogels.

Bridge positions count the residues as written; N and C are the ends. Ends that are not written are not given here. * marks the point of attachment. Acryloyl = C=CC(=O)*

recombinant human TNF-α, sequence (P01375 77-233): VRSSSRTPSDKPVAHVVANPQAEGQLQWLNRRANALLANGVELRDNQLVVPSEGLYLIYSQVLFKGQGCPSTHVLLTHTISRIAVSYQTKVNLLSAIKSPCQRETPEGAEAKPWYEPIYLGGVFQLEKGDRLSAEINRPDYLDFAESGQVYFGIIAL
AlexaFluor555-labeled TNFα, sequence (P01375 77-233): as above

B1: acryl-(FITC)WP9QY (peptide)
peptide: KYCWSQYLCY
modifications: N-terminus acrylated (acrylic acid); FITC conjugated to the additional lysine; intramolecular disulfide bond
In the case of B1, the binding result in assay [1] is listed as “binds”. As to Acryloyl-YCWSQYLCY (disulfide 2-8 (inferred)) [acryl-WP9QY], the binding result with recombinant human TNF-α is “binds”.

Values taken from publication PMC2752207 (Biomaterials, 2009).
